Test results published in publication PMC2804849.
Values belong to the substance of their own block, whether it stands above or below them.

Columns and labels:
SCF (Homo sapiens) = SCF (Homo sapiens) (UniProt Q13616); conditions: cited from earlier work
[1] = target: Nedd8-conjugated RC^CFP (human) (UniProt P62877); test: FRET or BRET
[2] = target: Rbx1-Cul1-CFP complex (RC^CFP) (human) (UniProt P62877); test: FRET or BRET
[3] = target: SCF holoenzyme (FRET experiment of Figure S2c) (human) (UniProt P62877); test: FRET or BRET

Chain of Cdc34 (P49427 whole entry): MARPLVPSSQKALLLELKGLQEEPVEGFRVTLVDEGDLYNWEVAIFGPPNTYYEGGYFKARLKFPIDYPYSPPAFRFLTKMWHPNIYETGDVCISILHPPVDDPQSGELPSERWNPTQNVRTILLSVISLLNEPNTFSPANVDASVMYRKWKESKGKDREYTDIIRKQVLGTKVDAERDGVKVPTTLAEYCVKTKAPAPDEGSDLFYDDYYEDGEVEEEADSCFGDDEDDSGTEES

Substance: Cdc34 (from UniProt P49427)
- Kd (SCF (Homo sapiens)): 20 nM

- fold change of the kinetic parameters against uncharged Cdc34 [1]: 2 fold
Substance: human Cdc34 charged with ubiquitin (Cdc34~Ub) (from UniProt Q712K3 1-238; P0CG48 1-76) (complex)

- Kd [2]: 74 nM
- koff [2]: 35 s⁻¹
- kon [2]: 4.7e+08 M⁻¹ s⁻¹
- fold change of koff against RC^CFP heterodimer [3]: < 2 fold
Substance: human Cdc34, WT, labelled with Lumio Green at the C-terminus (from UniProt Q712K3 1-238) (enzyme)
